In patent US20200247894A1 (Regeneron, published 2020):
Substitutions are numbered along the chain they refer to. Values belong to the binder of their own block, whether it stands above or below them.

Tests used:
[1] = molecular target: T1, D1 domain of human IL-2Rγ extracellular domain expressed with a C-terminal myc-myc-hexahistidine tag (human); test: SPR, mAb captured on anti-hFc, 25 C
T1 construct: also called human IL2Rγ domain 1
T1 chain: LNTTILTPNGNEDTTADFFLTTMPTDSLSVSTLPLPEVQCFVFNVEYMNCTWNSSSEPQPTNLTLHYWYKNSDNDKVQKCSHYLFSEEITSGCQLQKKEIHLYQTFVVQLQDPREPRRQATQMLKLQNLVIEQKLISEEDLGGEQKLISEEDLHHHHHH
Procedure: (§1) Equilibrium dissociation constants (KD values) for IL-2Rγ binding to purified anti-IL2Rγ monoclonal antibodies were determined using a Biacore 4000 instrument equipped with a real-time surface plasmon resonance biosensor. All binding studies were performed in 10 mM HEPES, 150 mM NaCl, 3 mM EDTA, and 0.05% v/v Surfactant Tween-20, pH 7.4 (HBS-ET) running buffer at 25° C. and 37° C. The Biacore sensor surface was first derivatized by amine coupling with a monoclonal mouse anti-human Fc antibody (GE, # BR-1008-39) to capture anti-IL2Rγ monoclonal antibodies.
(§2) The dissociation of monoclonal antibody bound IL2Rγ reagents were monitored for 8-10 minutes in HBS-ET running buffer. Kinetic association (kₐ) and dissociation (kd) rate constants were determined by fitting the real-time sensorgrams to a 1:1 binding model using Scrubber 2.0c curve fitting software. Binding dissociation equilibrium constants (KD) and dissociative half-lives (t_{1/2}) were calculated from the kinetic rate constants as: […]

[2] = molecular target: T1, D1 domain of human IL-2Rγ extracellular …; test: SPR, mAb captured on anti-hFc, 37 C
Procedure: as §1, §2

[3] = molecular target: T2, D2 domain of human IL2Rγ extracellular domain expressed with a C-terminal myc-myc-hexahistidine tag (human); test: SPR, mAb captured on anti-hFc, 25 C
T2 construct: also called human IL2Rγ domain 2
T2 chain: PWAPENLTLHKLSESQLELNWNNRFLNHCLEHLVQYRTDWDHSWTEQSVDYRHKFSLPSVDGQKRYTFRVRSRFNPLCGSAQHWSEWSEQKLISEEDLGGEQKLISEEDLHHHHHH
Procedure: as §1

[4] = molecular target: T2, D2 domain of human IL2Rγ extracellular …; test: SPR, mAb captured on anti-hFc, 37 C
Procedure: as §1

[5] = molecular target: T3, human IL2Rγ (endogenously expressed on cells) (human, UniProt P31785 23-369); test: cell-based or functional assay
T3 sequence (looked up): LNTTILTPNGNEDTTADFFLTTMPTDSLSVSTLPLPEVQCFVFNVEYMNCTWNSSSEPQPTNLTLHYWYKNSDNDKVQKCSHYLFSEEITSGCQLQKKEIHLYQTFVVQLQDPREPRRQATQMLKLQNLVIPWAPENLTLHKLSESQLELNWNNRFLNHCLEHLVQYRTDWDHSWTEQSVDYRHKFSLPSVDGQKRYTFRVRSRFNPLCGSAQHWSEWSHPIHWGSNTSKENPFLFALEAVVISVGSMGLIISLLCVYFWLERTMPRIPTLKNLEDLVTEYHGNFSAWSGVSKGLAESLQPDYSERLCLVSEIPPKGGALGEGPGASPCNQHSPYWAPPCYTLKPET

B1: H4H13538P (antibody, human IgG4 S228P, kappa, V domains shown)
VH: EVQLVESGGGLVQPGGSLGLSCAASGFTFSNYAMSWVRQAPGKGLEWVSAVSGGGGGTYYADSVKGRFTISRDNSKNTVLLQMNSLRAEDTAVYYCARGRTGGLDYWGPGTLVTVSS
VL: DVVMTQSPLSLPVIFGQPASISCRSSQSLVDSDGNTYLNWLQQRPGQSPRRLIYEVSNRDSGVPDRFSGSGSGTDFTLTISRVEAEDVGIYYCMQGTRWPPTFGGGTKVEIKR
notes: human IgG4
100 nM Ag Bound [1]: 2 RU
binding result [1]: no binding (tested: 100 nM)
100 nM Ag Bound [2]: 2 RU
100 nM Ag Bound [3]: 6 RU
binding result [3]: no binding (tested: 100 nM)
100 nM Ag Bound [4]: 6 RU

B2: H4H12899P (antibody, human IgG4 S228P, kappa, V domains shown)
VH: QVQLVESGGDLVKPGGSLRLSCATSGFTFSDFYMTWIRQAPGKGLEWISYISNSGSIVKYADSVKGRFTISRDNAKNSLYLQMNSLRAEDTAIYYCARFYGDRWGQGTLVTVSS
VL: DIQLTQSPSFLSASVGDRVTITCWASQGISTFLAWYQQKPGKAPKLLIYAASTLQSGVPSRFSGSGSGTDFTLTISSLQPEDFATYHCQQLNNYPWTFGQGTKVEIKR
notes: human IgG4
100 nM Ag Bound [1]: 0 RU
binding result [1]: no binding (tested: 100 nM)
100 nM Ag Bound [2]: 1 RU
100 nM Ag Bound [3]: -1 RU
100 nM Ag Bound [4]: 0 RU

B3: H4H12900P (antibody, human IgG4 S228P, kappa, V domains shown)
VH: QVQLVESGGGLVKPGGSLRLSCEASGFTFNDFYMTWIRQAPGKGLEWIAYISKSGDKMRYADSVKGRFSTSRDNAKNSLSLQMNSLRAEDTAVYYCARFYGDIWGQGTLVTVSS
VL: B2 VL with G28D, T31S, A34V, K45N, T53A, D70E, T85S, H87Y, Q89E
notes: human IgG4
100 nM Ag Bound [1]: 0 RU
binding result [1]: no binding (tested: 100 nM)
100 nM Ag Bound [2]: 2 RU
100 nM Ag Bound [3]: -1 RU
100 nM Ag Bound [4]: 1 RU

B6: H4H12890P (antibody, human IgG4 S228P, kappa, V domains shown)
VH: EVQLVESGGGLVQPGGSLRLSCAASGFTFNNYAMHWVRQAPGKGLEYVSSISSSGGSTYYEDSVKGRFTISRDNSKNTLYLQMGSLRAEDMAVYYCARSFYGSGTYYDTFDMWGQGTMVTVSS
VL: DIQMTQSPSSLSASIGDRVTITCRASQSISRYLNWYQQKPGKAPKLLIYAASSLQSGVPSRFSASGSGTDFTLTISSLQPEDFATYYCQQSYSTPFTFGQGTKLEIKR
notes: human IgG4
IC50; IL-4 250 pM; Ramos.2G6.4C10/STAT3-luc [5]: > 1e-07 M
IC50; IL-7 50 pM; NK92/hIL7R/STAT3-luc [5]: > 1e-07 M
Max Inhibition (%); IL-2 30 pM; NK92/hIL7R/STAT3-luc [5]: 15%
Max Inhibition (%); IL-4 250 pM; Ramos.2G6.4C10/STAT3-luc [5]: 54%
Max Inhibition (%); IL-7 50 pM; NK92/hIL7R/STAT3-luc [5]: 66%
Max Inhibition (%); IL-9 20 pM; NK92/hIL7R/STAT3-luc [5]: 36%
Max Inhibition (%); IL-15 60 pM; NK92/hIL7R/STAT3-luc [5]: 35%
100 nM Ag Bound [1]: 1 RU
binding result [1]: no binding (tested: 100 nM)
100 nM Ag Bound [2]: 2 RU
100 nM Ag Bound [3]: -1 RU
100 nM Ag Bound [4]: 1 RU

The remaining lines, values ahead:

100 nM Ag Bound [1]: 1 RU
100 nM Ag Bound [2]: -1 RU
100 nM Ag Bound [3]: 1 RU
binding result [3]: no binding (tested: 100 nM)
100 nM Ag Bound [4]: 0 RU
B4: H4H12924P2 (antibody, human IgG4 S228P, kappa, V domains shown)
VH: EVQLVESGGGLVQPGRSLRLSCAASGFTLEDYAMHWVRQAPGKGLEWVSGISWNRGSTGYADSVKGRFTISRDNAKNSLYLQMTSLRAEDTALYYCAKGFYSMDVWGQGTTVTVSS
VL: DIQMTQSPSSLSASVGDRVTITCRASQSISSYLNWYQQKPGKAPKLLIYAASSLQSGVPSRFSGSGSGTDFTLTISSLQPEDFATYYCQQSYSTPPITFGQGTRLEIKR
notes: human IgG4

IC50; IL-7 50 pM; NK92/hIL7R/STAT3-luc [5]: 2.3e-09 M
Max Inhibition (%); IL-2 30 pM; NK92/hIL7R/STAT3-luc [5]: 13%
Max Inhibition (%); IL-4 250 pM; Ramos.2G6.4C10/STAT3-luc [5]: 19%
Max Inhibition (%); IL-7 50 pM; NK92/hIL7R/STAT3-luc [5]: 34%
100 nM Ag Bound [1]: 51 RU
Kd [1]: 11.8 nM
koff [1]: 0.00196 s⁻¹
kon [1]: 166000 M⁻¹ s⁻¹
t½ [1]: 6 min
100 nM Ag Bound [2]: 32 RU
Kd [2]: 32.9 nM
koff [2]: 0.00442 s⁻¹
kon [2]: 134000 M⁻¹ s⁻¹
t½ [2]: 2.6 min
100 nM Ag Bound [3]: 1 RU
binding result [3]: no binding (tested: 100 nM)
100 nM Ag Bound [4]: 2 RU
B5: H4H12884P (antibody, human IgG4 S228P, kappa, V domains shown)
VH: QVQLQESGPGLVKPSQTLSLTCTVSGGSISSGGYYWSWIRQHPGKGLEWIGFIYYSGKTYYNPSLKSRLTISVDTSKSQFSLKLRSVTAADTAVYYCARLGYTNSAGWFDPWGQGTLVTVSS
VL: B6 VL with I15V, R31S, K45N, A64G, F83L, S93T, Q100P, L104V, E105D
notes: human IgG4
